Biological target: T1, Nup58(239–415), entire ordered region of Nup58 from Rattus norvegicus, His6 tag cleaved (Rattus norvegicus, UniProt P70581 239-415)
T1 construct: Nup58, Rattus norvegicus, residues 239-415 (entire ordered region); source: co-expressed with Nup54 and Nup62 from a polycistronic vector; not shown: His6, N-terminal, cleaved
T1 sequence: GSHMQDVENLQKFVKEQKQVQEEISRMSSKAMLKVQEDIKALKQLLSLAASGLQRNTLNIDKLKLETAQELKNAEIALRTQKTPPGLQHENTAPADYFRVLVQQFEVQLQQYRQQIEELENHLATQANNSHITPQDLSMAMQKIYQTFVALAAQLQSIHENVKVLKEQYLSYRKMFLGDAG
Assay: SEC; competition: preassembled triple complex (1.5 mg/ml) incubated with Nup54 (453–494) wild type or H469F/Q473L (0.6 mg/ml), then size-exclusion chromatography and SDS-PAGE of column fractions
Conditions: both partners purified

B1: wild-type Nup54 (453–494), Nup58-cognate segment of Nup54 (domain or fragment, Rattus norvegicus, UniProt P70582 453-494, looked up)
chain: EEKYYIDADLLREIKQHLKQQQEGLSHLISIIKDDLEDIKLV
notes: also called Nup54 segment; wt Nup54 (453–494)
binding result: binds

Reference: publication PMC4513098, “Ordered Regions of Channel Nucleoporins Nup62, Nup54, and Nup58 Form Dynamic Complexes in Solution*” (The Journal of Biological Chemistry, 2015)
